Measurements reported in the supplement of paper PMC11780869.

Test system: Bacillus subtilis
Test: cleaved RNA product abundance (RNA/gDNA barcode ratio) relative to median wild-type variant (ratio to wild type); higher = more accumulation of the downstream cleavage product
Procedure, shortened: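 Cleaved product abundance for each construct is its RNA-to-gDNA barcode ratio, scaled to the median construct carrying the unmutated site. Cleaved RNA was isolated on a gel, reverse transcribed and barcode-sequenced, with genomic DNA barcodes sequenced alongside and UMIs collapsed. The reporters were truncated aprE or tetM mRNAs with barcoded, mutagenized RNase Y cleavage-site windows integrated into the B. subtilis chromosome, and cultures grew in LB at 37°C from OD600 0.0003 to 0.3.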

[1] = experiment (reporter, strain, medium): exp 2b: truncated aprE reporter, strain BJT200, cleavage site: cggR-gapA (positions -7 to +36 mutated)
[2] = experiment (reporter, strain, medium): exp 4a: truncated aprE reporter, strain BJT201 with 2% xylose (RNase J1 expressed), cleavage site: cggR-gapA (positions -7 to +36 mutated)
[3] = experiment (reporter, strain, medium): exp 6: tetM reporter, strain 168, cleavage site: cggR-gapA (positions -7 to +36 mutated)
[4] = experiment (reporter, strain, medium): exp 8a: truncated aprE reporter, strain BJT201 with 2% xylose (RNase J1 expressed), cleavage site: glnRA (positions -5 to +31 mutated)

Sequence | cleaved RNA product abundance [1] | cleaved RNA product abundance [2] | cleaved RNA product abundance [3] | cleaved RNA product abundance [4]
ACAGACGAAGGAGCCGCAAAGAATTTATTAAGCGATGAATAATCCCTCAATATAAATATCTCTCACTTATTTAAA | 0.116 | 0.122 |  | 
ACAGACGAAGGAGCCGCAAAGAAGTTATTAACGGATGAATACTCCCTCAATATAAATATCTCTCACTTATTTAAA |  | 0.133 |  | 
ACAGACGAAGGAGCCGCAAAGAAGTTATTAAGGGATGAATAATCCCTCTCTATAAATATCTCTCACTTATTTAAA |  | 0.372 |  | 
ACAGACGAAGGAGCCGCAAAGAAGTTATTAAGGTATGAATAATCCCTCAATATAAATATCTCTCACTTATTTAAA | 0.107 | 0.142 | 0.127 | 
ACAGACGAAGGAGCCGCAAAGAAGTTATTAAGGGATGAATACTCCCTCTATATAAATATCTCTCACTTATTTAAA | 0.275 | 0.259 |  | 
CGACATGTCCCGCTTCTTTCATTAATCCGTTACCAACTGTTTTGATATATACATTTACCTTTTAAGAGGAGGAAT |  |  |  | 0.276
CGACATGTCCCGCTTCTTTCATTAATCCGTTAGCAACTGTTTTCCTATATACATTTACTTTTTAAGAGGAGGAAT |  |  |  | 0.31
CGACATGTCCCGCTTCTTTCATTAATCCGTTATCAACTGTTTTGCTATATACATTCACCTTTTAAGAGGAGGAAT |  |  |  | 0.214
CGACATGTCCCGCTTCTTTCATTAATCCGTAAGGAACTGTTTTGCTATATACATTTACCTTTTAAGAGGAGGAAT |  |  |  | 0.32
ACAGACGAAGGAGCCGCAAAGAAGTTATTAATGGATGAATAATCTCTCAATATAAATATCTCTCACTTATTTAAA | 0.108 | 0.14 |  | 
ACAGACGAAGGAGCCGCAAAGAAGTTATTAAGGGATGAATAATCCCTCACTATATATATCTCTCACTTATTTAAA |  | 0.319 |  | 
ACAGACGAAGGAGCCGCAAAGAAGTTAATAAGGGATGAATAATCCTTCAATATAAATATCTCTCACTTATTTAAA | 0.185 | 0.237 |  | 
ACAGACGAAGGAGCCGCAAAGAAGTTATTAAGGGATGAAAAAACCCTCAATATAAATATCTCTCACTTATTTAAA | 0.411 | 0.642 |  | 
ACAGACGAAGGAGCCGCAAAGAAGTTATTAAGGGATGAATAATCCCTTATTATAAATATCTCTCACTTATTTAAA |  | 0.813 |  | 
ACAGACGAAGGAGCCGCAAAGAAGTTATTAAGGGCTGAAAAATCCCTCAATATAAATATCTCTCACTTATTTAAA | 0.212 |  |  | 
ACAGACGAAGGAGCCGCAAAGAAGTTTTTAAGGGATGAATAATCCCTTAATATAAATATCTCTCACTTATTTAAA | 0.844 | 0.798 |  | 
ACAGACGAAGGAGCCGCAAAGAAGTTATTAACGGATGAATTATCCCTCAATATAAATATCTCTCACTTATTTAAA | 0.12 | 0.179 |  | 
CGACATGTCCCGCTTCTTTCATTATTCCGTTAGCAACTGTTTTGCTATATACATTTACCGTTTAAGAGGAGGAAT |  |  |  | 1.18
ACAGACGAAGGAGCCGCAAAGAAGTTATTAAGGAATGAATAATCGCTCAATATAAATATCTCTCACTTATTTAAA |  | 0.0645 |  | 
ACAGACGAAGGAGCCGCAAAGAATTTATTAAGGGATGAATTATCCCTCAATATAAATATCTCTCACTTATTTAAA | 0.531 | 0.268 |  | 

Sequence | cleaved RNA product abundance [1] | cleaved RNA product abundance [2] | cleaved RNA product abundance [3] | cleaved RNA product abundance [4]
CGACATGTCCCGCTTCTTTCATTAATCCGTTAGGAACTGTTTTGCTATACACATTTACCTTTTAAGAGGAGGAAT |  |  |  | 0.245
ACAGACGAAGGAGCCGCAAAGAAGTTATTAAGGGATAAATAATCCCTCAATATAATTATCTCTCACTTATTTAAA | 0.507 | 0.532 |  | 
ACAGACGAAGGAGCCGCAAAGAAGTTATCAAGGGATGAATAATCCCTCAATATAATTATCTCTCACTTATTTAAA |  | 0.218 |  | 
ACAGACGAAGGAGCCGCAAAGAAGTTATTAAGGGATGAATAATCCATCAATATAAATAACTCTCACTTATTTAAA |  | 0.185 |  | 
ACAGACGAAGGAGCCGCAAATAAGTTATTATGGGATGAATAATCCCTCAATATAAATATCTCTCACTTATTTAAA |  | 0.365 |  | 
CGACATGTCCCGCTTCTTTCATTAATCCGTTAGCAACTGTATTCCTATATACATTTACCTTTTAAGAGGAGGAAT |  |  |  | 0.45
ACAGACGAAGGAGCCGCAAATGAGTTATTAAGGGATGAATAATCCCTCAATATAAATATCTCTCACTTATTTAAA |  | 1.15 |  | 
CGACATGTCCCGCTTCTTTCATTAATCCGTTATCATCTGTTTTGCTATATACATTTACCTTTTAAGAGGAGGAAT |  |  |  | 0.267
ACAGACGAAGGAGCCGCAAATAAGTTATTAATGAATGAATAATCCCTCAATATAAATATCTCTCACTTATTTAAA |  | 0.107 |  | 
ACAGACGAAGGAGCCGCAAAGAACTTATGAAGGGATGAATAATCCCTCAATATAAATATCTCTCACTTATTTAAA | 0.274 |  |  | 
ACAGACGAAGGAGCCGCAAAGAAGTTCTTAAGGGAAGAATAATCCCTCAATATAAATATCTCTCACTTATTTAAA |  | 0.113 |  | 
ACAGACGAAGGAGCCGCAAAGAAGTTATTAACGGATGGATAATCCCTCAATATAAATATCTCTCACTTATTTAAA |  | 0.152 |  | 
CGACATGTCCCGCTTCTTTCATTAATTCGTTAGCAACTGTTTTGCTATATACATTTGCCTTTTAAGAGGAGGAAT |  |  |  | 0.536
ACAGACGAAGGAGCCGCAAAGAAGTTATTAAGGGATAAATAATCCCTCAATATATATATCTCTCACTTATTTAAA |  | 0.916 |  | 
ACAGACGAAGGAGCCGCAAAGAAGTTATTAAGGGTTGAATAATCCCTCAATATAAATATCTCTCACTTATTTAAA | 0.396 | 0.483 | 0.439 | 
ACAGACGAAGGAGCCGCAAAGAAGTTATTAAGGGATGAATTATCACTCAATATAAATATCTCTCACTTATTTAAA |  | 0.178 |  | 
CGACATGTCCCGCTTCTTTCATTAATCCGTTAGCAAATGTTTGGCTATATACATTTACCTTTTAAGAGGAGGAAT |  |  |  | 0.43
CGACATGTCCCGCTTCTTTCATTAATCTGTAAGCAACTGTTTTGCTATATACATTTACCTTTTAAGAGGAGGAAT |  |  |  | 0.539
CGACATGTCCCGCTTCTTTCATTAATCCTTTAGAAACTGTTTTGCTATATACATTTACCTTTTAAGAGGAGGAAT |  |  |  | 0.18
CGACATGTCCCGCTTCTTTCATTAATCCTTTCGCAACTGTTTTGCTATATACATTTACCTTTTAAGAGGAGGAAT |  |  |  | 0.299

Sequence | cleaved RNA product abundance [1] | cleaved RNA product abundance [2] | cleaved RNA product abundance [3] | cleaved RNA product abundance [4]
ACAGACGAAGGAGCCGCAAAAAAGTTATTAAGGGATGAATAATTCCTCAATATAAATATCTCTCACTTATTTAAA | 0.68 | 0.814 |  | 
ACAGACGAAGGAGCCGTAAAGAAGTTATTAAGGCATGAATAATCCCTCAATATAAATATCTCTCACTTATTTAAA |  |  | 0.143 | 
CGACATGTCCCGCTTCTTTCATTAATCCGTAAGCAACTGTTTTGCTATATACATTAACCTTTTAAGAGGAGGAAT |  |  |  | 0.756
ACAGACGAAGGAGCCGCAATGAAGTTATTAAGGGATGAATAATCCCTAAATATAAATATCTCTCACTTATTTAAA |  | 0.792 |  | 
CGACATGTCCCGCTTCTTTCATTAATCCTTTAGCAACTGGTTTGCTATATACATTTACCTTTTAAGAGGAGGAAT |  |  |  | 0.306
ACAGACGAAGGAGCCGCAAAGAAGTTATTAAGAAATGAATAATCCCTCAATATAAATATCTCTCACTTATTTAAA | 0.0992 | 0.1 |  | 
ACAGACGAAGGAGCCGCACAGAAGTTATCAAGGGATGAATAATCCCTCAATATAAATATCTCTCACTTATTTAAA |  | 0.365 |  | 
ACAGACGAAGGAGCCGCAAAGAATTTATTAAGGGATGAATAATCACTCAATATAAATATCTCTCACTTATTTAAA | 0.134 | 0.119 |  | 
ACAGACGAAGGAGCCGCAAAAAAGTTATTAAGGGATAAATAATCCCTCAATATAAATATCTCTCACTTATTTAAA | 0.8 | 0.86 |  | 
ACAGACGAAGGAGCCGCAAAGAAGTTATTAAGGCATGAATAATCCTTCAATATAAATATCTCTCACTTATTTAAA | 0.115 | 0.13 |  | 
ACAGACGAAGGAGCCGCAAAGAATTTACTAAGGGATGAATAATCCCTCAATATAAATATCTCTCACTTATTTAAA | 0.251 | 0.31 |  | 
CGACATGTCCCGCTTCTTTCATTAATCCGTTAGCAACTGTTTTGATATATACATTTACATTTTAAGAGGAGGAAT |  |  |  | 0.372
ACAGACGAAGGAGCCGCAAAGTAGTTATAAAGGGATGAATAATCCCTCAATATAAATATCTCTCACTTATTTAAA |  | 0.301 |  | 
ACAGACGAAGGAGCCGCAAAGAAGTTATTAAGGAATGAAGAATCCCTCAATATAAATATCTCTCACTTATTTAAA | 0.0952 | 0.17 |  | 
ACAGACGAAGGAGCCGCAAAGAAGTTATTAAGGGAAGAATAATCACTCAATATAAATATCTCTCACTTATTTAAA | 0.109 | 0.104 |  | 
ACAGACGAAGGAGCCGCAAAGAAGTTATTAAGGGATGAATATTCCCTCAAGATAAATATCTCTCACTTATTTAAA | 0.254 | 0.243 |  | 
CGACATGTCCCGCTTCTTTCATTAATCCGTTTGCAACTGTTTTGCTAAATACATTTACCTTTTAAGAGGAGGAAT |  |  |  | 0.289
ACAGACGAAGGAGCCGCAAAGAAGTTATTAAGGGATGAATAATCCCTCAATATTAATATCTCTCACTTATTTAAA | 0.169 | 0.113 | 0.249 | 
CGACATGTCCCGCTTCTTTCATTAATCCGTTACCAACTGTTTTGCAATATACATTTACCTTTTAAGAGGAGGAAT |  |  |  | 0.26
